Reference: paper PMC7535908, “Dipeptidyl peptidase 3 modulates the renin–angiotensin system in mice” (The Journal of Biological Chemistry, 2020)

How the values were obtained:
[1] = target: T1, purified recombinant human DPP3 (hDPP3) (Homo sapiens, UniProt Q9NY33); test: Single-injection ITC enzyme kinetics of angiotensin peptide hydrolysis by hDPP3; format: biochemical; settings: for Substrate behaviour with DPP3 (heat signal, result in words): 5 µl of 2 mM peptide into 20 μM hDPP3, pH 8.0, 25 °C, no curve fitting possible for slow or poor substrates; for ΔH (enthalpy of interaction, heat of reaction) / kcat (maximum turnover number) / Km: 5 µl of 2 mM peptide into 200 µl of 20 μM hDPP3, 50 mM Tris-HCl pH 8.0, 100 mM NaCl, 25 °C, means ± S.D., three or more technical replicates from two biological replicates; for kcat (maximum turnover number) / Km: Michaelis–Menten fit, SD; for Km: read-out: Km (Michaelis–Menten constant)
T1 construct: made in house
T1 sequence (Q9NY33 1-737): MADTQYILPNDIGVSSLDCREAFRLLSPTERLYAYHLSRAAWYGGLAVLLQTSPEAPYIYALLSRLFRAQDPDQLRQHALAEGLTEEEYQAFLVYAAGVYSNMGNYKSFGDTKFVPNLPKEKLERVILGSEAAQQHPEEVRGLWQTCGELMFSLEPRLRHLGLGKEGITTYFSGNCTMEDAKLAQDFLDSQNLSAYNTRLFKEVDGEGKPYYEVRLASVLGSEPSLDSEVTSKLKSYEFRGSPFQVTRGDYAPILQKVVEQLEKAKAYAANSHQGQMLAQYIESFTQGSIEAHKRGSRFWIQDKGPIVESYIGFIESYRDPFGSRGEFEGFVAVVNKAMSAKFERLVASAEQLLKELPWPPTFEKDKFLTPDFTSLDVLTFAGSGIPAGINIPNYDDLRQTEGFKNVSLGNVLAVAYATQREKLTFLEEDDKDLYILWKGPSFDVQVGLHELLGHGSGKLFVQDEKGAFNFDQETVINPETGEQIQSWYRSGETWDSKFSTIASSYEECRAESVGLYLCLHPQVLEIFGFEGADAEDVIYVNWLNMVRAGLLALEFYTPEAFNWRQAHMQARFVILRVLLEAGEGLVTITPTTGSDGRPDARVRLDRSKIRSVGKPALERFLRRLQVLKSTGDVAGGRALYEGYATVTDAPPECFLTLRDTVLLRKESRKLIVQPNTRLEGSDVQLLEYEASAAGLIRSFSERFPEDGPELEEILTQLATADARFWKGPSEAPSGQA
Text: Thus, we investigated the activity of DPP3 against different angiotensin peptides. Kinetic parameters of angiotensin peptides were obtained by single-injection calorimetry measurements that are based on the exothermal hydrolysis of peptide bonds by purified recombinant human DPP3, which shares 93% sequence identity with the mouse DPP3. […] The graphs show the rate of angiotensin conversion as a function of its concentration. The insets depict the raw data of heat change caused by the conversion of substrate peptides.
Figure 9. […] The reaction was started by injecting 5 µl of 2 mM angiotensin peptides to the calorimetric cell containing 20 μM hDPP3. The data represent three or more technical replicates from two biological replicates.
Calorimetric activity of six different angiotensin peptides as purported substrates of DPP3 were further assayed using a MicroCal PEAQ-ITC (Malvern Panalytical Ltd., Malvern, UK). […] For this, the single-injection method was used, in which 5 µl of 2 mM angiotensin peptide was titrated into 200 µl of 20 μM purified hDPP3. The purification of recombinant hDPP3 was done as described in Ref. [35]. Both the ligand and the purified protein were prepared in 50 mM Tris-HCl at pH 8.0 containing 100 mM NaCl. The experiments consisted of a single injection of the ligand continuously over a period of 10 s, including an initial delay of 180 s before the injection and a spacing of 300 s after the injection. The experiments were performed at 25 °C with a stirring speed of 500 rpm. The thermodynamic characterization of this binding interaction was obtained using MicroCal PEAQ-ITC analysis software.

[2] = target: T2, purified recombinant human DPP3 (dipeptidyl peptidase 3) (human) (UniProt Q9NY33)
T2 sequence: T1 sequence (Q9NY33 1-737)

Row | Substance | Km, single-injection ITC enzyme kinetics (hydrolysis of the peptide by hDPP3) [2] [µM] | kcat, single-injection ITC enzyme kinetics (hydrolysis of the peptide by hDPP3) [2] [s⁻¹] | Substrate behaviour with DPP3 (heat signal, result in words) [1] | also measured
1 | Ang I: angiotensin peptide (1–10), commercially purchased (Bachem), tested as purported substrate of DPP3 (DRVYIHPFHL) | – | – | poor substrate | –
2 | Ang III: angiotensin peptide (2–8), commercially purchased (Bachem) | – | – | both endothermic and exothermic behavior | –
3 | Ang IV: angiotensin peptide (3–8), commercially purchased (Bachem) | – | – | both endothermic and exothermic behavior | –
4 | Ang(1–5): angiotensin peptide (1–5), commercially purchased (Bachem) (DRVYI) | – | – | “good” substrates | ΔH (enthalpy of interaction, heat of reaction) [1]: -1.84 ± -0.04 kcal/mol; kcat (maximum turnover number) [1]: 0.35 ± 0.002 s⁻¹; Km [1]: 12.5 ± 2.2 µM
5 | Ang(1–7): angiotensin peptide (1–7), commercially purchased (Bachem), main metabolite of the alternate RAS | – | – | “good” substrates | ΔH (enthalpy of interaction, heat of reaction) [1]: -1.52 ± -0.10 kcal/mol; kcat (maximum turnover number) [1]: 0.14 ± 0.003 s⁻¹; Km [1]: 1.95 ± 0.2 µM
6 | angiotensin (1–7), Ang(1–7) (from UniProt P01019 25-31) (peptide) | 1.95 | 0.14 | – | ΔH (enthalpy of interaction, also called heat of reaction), single-injection ITC [2]: -1.52 kcal/mol
7 | tynorphin | – | – | “slow” substrates | –

Now from value to substance, other results behind:

Row | Km, single-injection ITC enzyme kinetics (hydrolysis of the peptide by hDPP3) [2] [µM] | kcat, single-injection ITC enzyme kinetics (hydrolysis of the peptide by hDPP3) [2] [s⁻¹] | Substance | Substrate behaviour with DPP3 (heat signal, result in words) [1] | also measured
8 | 12.5 | 0.35 | angiotensin (1–5), Ang(1–5) (from UniProt P01019 25-29) (peptide) | – | ΔH (enthalpy of interaction, also called heat of reaction), single-injection ITC [2]: -1.84 kcal/mol
9 | 8.4 | 0.25 | angiotensin II, Ang II (1–8) (from UniProt P01019 25-32) (peptide) | – | –
